According to patent publication US8399414B2, “Analgesics” (NRL Pharma, Inc., priority 2002, dated 2013):

Tests used:
male Wistar rats [1] = experiment: formalin test, enhancement of analgesic effect of morphine (Example 13); assay type: in vivo; conditions: 10 ng/rat bovine lactoferrin with 1 to 10,000 ng/rat morphine; several 10- to 100-fold or more; FIG. 16
Experimental: The lactoferrin's effect of enhancing the analgesic effect of morphine was examined by administering 1 to 10,000 ng/rat of morphine concurrently with 10 ng/rat of bovine lactoferrin (▪) or alone (●) in the same manner as in Example 12. The results are shown in FIG. 16: the number of the foot-lifting times in the phase 1 pain (left graph) and the number of foot-lifting time in the phase 2 pain (right graph).

[2] = tested on: adjuvant arthritis models; experiment: adjuvant arthritis, Flexion test after a single oral dose (Example 7); assay type: in vivo, rat
Experimental: On day 25 after the adjuvant treatment, the rats were divided into 6 groups and administered once BSA (bovine serum albumin) or LF (lactoferrin), and after 3 hours, the pain index was measured for each group by Flexion test in the manner as in Example 5. Thirty minutes before Flexion test, saline solution, morphine or naloxone was administered subcutaneously.

rodent animals [3] = experiment: acetic acid rising test; assay type: in vivo; conditions: administration before test
Description: (§1) The inventors carried out, using rodent animals, animal tests related to pain: (1) hot plate test, (2) formalin test and (3) acetic acid rising test to examine the influences of lactoferrin administration on the animals' sensation of pain.

protease = experiment: resistance of lactoferrin to protease; assay type: in vitro ADME
Description: (§2) Preferably the composition of this invention, as a composition for an oral formulation, is made into an enteric-coated dosage form. The inventors of this invention hypothesize that there exists a structure, which can be referred to as a lactoferrin sensor, on the mucosa of the intestinal tract, as described in detail in International Patent Application, PCT/JP01/10212 (WO02/41912).

pepsin = assay type: in vitro ADME
Description: as §2

beagles [4] = experiment: single dose acute toxicity study (GLP), oral; assay type: in vivo; conditions: maximum dose of 5 g/kg
Description: (§3) In toxicity studies in beagles and rats carried out by the inventors in accordance with GLP, lactofferin extracted from milk (manufactured by Tatua Milk Industry Co., Ltd., New Zealand, purity: 87%) was non-toxic after oral administration at physical limit doses. […] Accordingly, lactoferrin is probably non-toxic after oral administration and has almost ideal characteristics as a therapy for cancer. It is likely that lactoferrin defends opportunistic infections frequently occurring in immunocompromised hosts such as patients with cancer, prevents carcinogenesis, inhibits the growth of cancer, prevents metastasis, and destructs a metastatic lesion. Further, it is probably highly safe when administered to patients declining in immunopotency, such as aged patients.

rats [5] = experiment: single dose acute toxicity study (GLP), oral; assay type: in vivo; conditions: maximum dose of 5 g/kg
Description: as §3

beagles [6] = experiment: subacute toxicity study, dosing period of 3 months, oral; assay type: in vivo; conditions: maximum dose of 2 g/kg
Description: as §3

rats [7] = experiment: as above; assay type: in vivo; conditions: maximum dose of 2 g/kg
Description: as §3

male Wistar rats [8] = experiment: formalin test, intrathecal administration, comparison with morphine (Example 12); assay type: in vivo; conditions: 30 minutes before formalin, bLF 0.1 to 100 μg/rat, rhLF 100 μg/rat, morphine 10 μg/rat, FIGS. 15
Experimental: Groups consisting of male Wistar rats 6 weeks of age (n=6 to 8) were intrathecally administered 0.1 to 100 μg/rat of bovine lactoferrin (bLF), 100 μg/rat of recombinant human lactoferrin (rhLF) or 10 μg/rat of morphine (Mor) 30 minutes before formalin was injected into their foot pads. The results are shown in FIGS. 15: the number of the foot-lifting times in the phase 1 pain (left graph) and the number of the foot-lifting times in the phase 2 pain (right graph).

male Wistar rats [9] = experiment: formalin test, comparison with diclofenac (Example 3); assay type: in vivo, rat; conditions: i.p. 30 minutes before formalin
Experimental: Male Wistar rats 6 weeks of age were used. The rats in one group were given bovine lactoferrin and those in another group were given a control drug, diclofenac, by intraperitoneal administration 30 minutes before injecting formalin into their foot pads. Their responses to pain are shown in FIG. 5: the phase 1 pain (left) and the phase 2 pain (right).
Lactoferrin and diclofenac were administered intraperitoneally 30 minutes before formalin injection both in the control group (n=4) and the diclofenac group (n=5). The pain inhibiting effect of diclofenac disappeared about 50 minutes after formalin injection, whereas the pain inhibiting effect of lactoferrin lasted long and even 60 minutes after formalin injection.

[10] = tested on: adjuvant arthritis rat model; assay type: in vivo; conditions: LF 100 mg/kg oral sid or bid, Dex 1 mg/kg i.p. sid
Experimental: The preventive/therapeutic effects against arthritis of orally administered lactoferrin (LF) and the mechanism of the action were examined using an adjuvant arthritis rat model as an animal model with rheumatoid arthritis.
Evaluation of the above described effects was performed by measuring the change in volume of foot due to swelling, Flexion test (pain in joints caused in flexion and extension test), and the production of cytokine by the stimulation of lipopolysaccharide.
Adjuvant was injected subcutaneously into the sole of the right hind leg of each rat, and the volume of the feet was measured once a day to obtain the swelling rate of the feet of both hind legs. The test substance was suspended in 0.5% CMC and administered once or twice a day for 18 consecutive days starting from the first dose 3 hours before adjuvant treatment (day 0). On 4th and 10th days after treating with adjuvant, the swollen tarsal joint of each rat was extended 10 times and the number of times each rat screamed due to the stimulation of pain sensation caused by flexing and extending its tarsal joint was measured.

IL-10 production = experiment: LPS-stimulated cytokine production in rats with adjuvant arthritis, ELISA (Example 8); assay type: in vivo, rat; conditions: LPS 1 mg/kg i.p., blood 3 hours later
Experimental: (§4) It is known that in adjuvant arthritis models, the production of cytokines due to the LPS stimulation increases considerably, compared with normal animals, because the reactivity of their immune system increases due to chronic inflammation.
(§5) One mg/kg of LPS was administered intraperitoneally to rats with adjuvant arthritis to stimulate the production of cytokines. Three hours after the LPS administration, the blood was collected from each rat and the quantities of cytokines were measure by ELISA. The groups to be administered a single dose of lactoferrin (groups B and C) were given orally 0.5% CMC once daily until the experiment day to allow the experiment conditions to match those of the group to be administered lactoferrin for 19 consecutive days. The group to be administered lactoferrin for 19 consecutive days (group E) was administered orally lactoferrin once daily from the very day when treated with adjuvant. The design of the experiment is shown in Table 2 and the results in FIG. 14.

TNF-α production = experiment: as above; assay type: in vivo, rat; conditions: LPS 1 mg/kg i.p., blood 3 hours later
Experimental: as §4, §5

[11] = tested on: adjuvant arthritis rat model; experiment: adjuvant arthritis rat model, treatment in chronic phase (Example 6); assay type: in vivo
Experimental: Subsequently after Example 5, lactoferrin (100 mg/kg) was orally administered for 7 consecutive days starting from day 19 after the adjuvant treatment, when the adjuvant treated rats were in the chronic phase of inflammation.

male Wistar rats [12] = experiment: formalin test, intraperitoneal administration (Example 1); assay type: in vivo, rat
Experimental: (§6) Formalin test is a typical pain sensation stimulating test. It is a method for determining an analgesic effect of drugs in which 50 μl of 2% formalin is injected into a foot pad of each experimental rat and the foot-lifting and foot-licking behavior of the rats is observed.
Ten male Wistar rats (6 weeks of age) were randomly divided into two groups, and one hour before injecting formalin, the rats in the control group were given saline solution (1 ml/kg) and those in the lactoferrin group were given bovine lactoferrin dissolved in saline solution (100 ml/kg, Tatua Milk Industry Co., Ltd., purity: 87%) by intraperitoneal injection. After one hour, formalin solution was injected into the foot pad of each rat, and the foot-lifting and foot-licking behavior of each rat due to the stimulation of the pain sensation was measured for one hour (FIGS. 1 and 2).

rodent animals [13] = experiment: hot plate test; assay type: in vivo; conditions: administration before test
Description: as §1

male Wistar rats [14] = experiment: ethanol and restriction stress gastric ulcer (Example 4); assay type: in vivo, rat; conditions: 1% bovine lactoferrin in feed for 8 weeks; relative to control group
Experimental: Sixteen male Wistar rats (6 weeks of age) were randomly divided into two groups, and the rats in one group (n=8) were fed standard feed powder for rodent animals (CLEA JAPAN, INC., CE-2) while those in the other group (n=8) fed CE-2 with 1% bovine lactoferrin added thereto for 8 weeks. Eight weeks later, the rats were deprived of food for one night, administered orally and forcibly 5 ml/kg weight of 50% ethanol, and subsequently inflicted with restriction stress for 2 hours. Two 2 hours later, the stomach of each rat was excised and “number of hemorrhagic spots”, “area of hemorrhage”, “number of ulcers”, “number of large ulcers” and “areas of ulcers” on the gastric mucosa were measured.

male Wistar rats [15] = experiment: formalin test, oral administration in feed for 4 weeks (Example 2); assay type: in vivo, rat; conditions: 1% bovine lactoferrin in feed for 4 weeks
Experimental: as §6
Fourteen male Wistar rats (6 weeks of age) were randomly divided into two groups, and the rats in one group were fed standard feed powder for rodent animals (Clea Japan, Inc., CE-2) while those in the other group fed CE-2 with 1% bovine lactoferrin added thereto for 4 weeks. Four weeks later, formalin solution was injected into the foot pad of each rat, and the foot-lifting and foot-licking behavior of each rat due to the pain sensation stimulation was measured for one hour (FIGS. 3 and 4).

[16] = lactoferrin orally for 19 consecutive days
[17] = single oral dose of lactoferrin

B1: lactoferrin (protein, UniProt P24627 20-708, looked up)
Lactotransferrin: APRKNVRWCTISQPEWFKCRRWQWRMKKLGAPSITCVRRAFALECIRAIAEKKADAVTLDGGMVFEAGRDPYKLRPVAAEIYGTKESPQTHYYAVAVVKKGSNFQLDQLQGRKSCHTGLGRSAGWIIPMGILRPYLSWTESLEPLQGAVAKFFSASCVPCIDRQAYPNLCQLCKGEGENQCACSSREPYFGYSGAFKCLQDGAGDVAFVKETTVFENLPEKADRDQYELLCLNNSRAPVDAFKECHLAQVPSHAVVARSVDGKEDLIWKLLSKAQEKFGKNKSRSFQLFGSPPGQRDLLFKDSALGFLRIPSKVDSALYLGSRYLTTLKNLRETAEEVKARYTRVVWCAVGPEEQKKCQQWSQQSGQNVTCATASTTDDCIVLVLKGEADALNLDGGYIYTAGKCGLVPVLAENRKSSKHSSLDCVLRPTEGYLAVAVVKKANEGLTWNSLKDKKSCHTAVDRTAGWNIPMGLIVNQTGSCAFDEFFSQSCAPGADPKSRLCALCAGDDQGLDKCVPNSKEKYYGYTGAFRCLAEDVGDVAFVKNDTVWENTNGESTADWAKNLNREDFRLLCLDGTRKPVTEAQSCHLAVAPNHAVVSRSDRAAHVKQVLLHQQALFGKNGKNCPDKFCLFKSETKNLLFNDNTECLAKLGGRPTYEEYLGTEYVTAIANLKKCSTSPLLEACAFLTR
notes: bovine lactoferrin extracted from milk (Tatua Milk Industry Co., Ltd., purity 87%)
Q: Which “enhancement of the analgesic effect of morphine, phase 1 pain” value (male Wistar rats [1]) does the source give for B1 here?
A: 10- to 100 fold

Q: And the “enhancement of the analgesic effect of morphine, phase 2 pain” value (male Wistar rats [1])?
A: 10- to 100 fold

Q: And the “analgesic effect of lactoferrin with naloxone” value ([2]; LF 100 mg/kg oral plus naloxone 3 mg/kg s.c. 30 mins before Flexion test)?
A: completely inhibited by naloxone

Q: And the “sensitivity to pain in the joints (Flexion test)” value ([2]; single oral dose 10 to 100 mg/kg, 3 hrs before test, day 25 after adjuvant, FIG. 13)?
A: inhibited the sensitivity to pain in the joints dose-dependently

Q: What about the “sensation of pain against the stimulation” value (rodent animals [3]) of the same molecule?
A: weakened sensation of pain

Q: What about the resistance to protease (protease) of the same molecule?
A: significantly resistive

Q: And the sensitivity to pepsin (pepsin)?
A: highly sensitive

Q: What about the “abnormal findings, single dose acute toxicity” value (beagles [4]) of the same molecule?
A: no abnormal findings were observed

Q: And the “abnormal findings, single dose acute toxicity” value (rats [5])?
A: no abnormal findings were observed

Q: And the “abnormal findings, subacute toxicity” value (beagles [6])?
A: no abnormal findings were observed

Q: And the “abnormal findings, subacute toxicity” value (rats [7])?
A: no abnormal findings were observed

Q: And the “phase 1 pain (number of foot-lifting times)” value (male Wistar rats [8])?
A: inhibits

Q: And the “phase 2 pain (number of foot-lifting times)” value (male Wistar rats [8])?
A: inhibits

Q: What about the “inhibition of phase 1 pain” value (male Wistar rats [9]; FIG. 5) of the same molecule?
A: inhibited dose-dependently

Q: What about the “inhibition of phase 2 pain” value (male Wistar rats [9]; FIG. 5) of the same molecule?
A: inhibited dose-dependently

Q: What about the “duration of pain inhibiting effect after formalin injection” value (male Wistar rats [9]; FIGS. 7 and 8) of the same molecule?
A: ≥ 60 min

Q: And the “swelling rate of the feet” value ([10]; 18 consecutive days from day 0, FIG. 10)?
A: significantly lower

Q: What about the “Flexion test (screams, pain index)” value ([10]; days 4 and 10 after adjuvant, FIG. 11) of the same molecule?
A: neither screamed nor showed pain sensation reaction

Q: What about the IL-10 production (IL-10 production; [16]) of the same molecule?
A: increase

Q: And the IL-10 production (IL-10 production; [17])?
A: increase

Q: What about the TNF-α production (TNF-α production; [16]) of the same molecule?
A: significant inhibition

Q: And the TNF-α production (TNF-α production; [17])?
A: significant inhibition

Q: And the “pain index in Flexion test” value ([11]; 7 consecutive days from day 19, LF vs control from day 1, Dex vs lactoferrin groups, FIG. 12C)?
A: significantly lower

Q: What about the swelling of feet ([11]; 7 consecutive days from day 19 after adjuvant, LF 100 mg/kg oral (day 7 vs control), Dex 1 mg/kg (from day 1)) of the same molecule?
A: significantly lower

Q: What about the foot-lifting behavior (male Wistar rats [12]; i.p. 100 ml/kg one hour before formalin, measured for one hour, vs control P<0.0001, FIG. 1) of the same molecule?
A: significantly decreased

Q: And the “number of times rats lifted their feet within 50 minutes after formalin injection (phase 2 pain)” value (male Wistar rats [12]; i.p. one hour before formalin, vs control, FIG. 2)?
A: more significantly decreased

Q: And the foot-licking behavior (male Wistar rats [12]; i.p., higher doses, data not shown)?
A: significantly decreased

Q: And the “sensation of pain against the stimulation” value (rodent animals [13])?
A: weakened sensation of pain

Q: What about the “area of the hemorrhage per rat, decreased to” value (male Wistar rats [14]) of the same molecule?
A: 79%

Q: And the “area of the ulcers, decreased to” value (male Wistar rats [14])?
A: about 30%

Q: What about the “number of the large ulcers, decreased to” value (male Wistar rats [14]) of the same molecule?
A: 50%

Q: What about the “number of the ulcers, decreased to” value (male Wistar rats [14]) of the same molecule?
A: 50%

Q: What about the “number, per rat, of hemorrhagic spots on the gastric mucosa, decreased to” value (male Wistar rats [14]) of the same molecule?
A: 87%

Q: What about the foot-licking behavior (male Wistar rats [15]) of the same molecule?
A: significantly decreased

Q: And the “phase 2 pain sensation stimulation induced by formalin” value (male Wistar rats [15]; FIG. 4)?
A: significantly inhibiting

Q: What about the “stimulation of the pain sensation (foot-lifting)” value (male Wistar rats [15]; vs control P<0.0001, FIG. 3) of the same molecule?
A: weakened the sensitivity to pain
